Values quoted from earlier work, collected in patent publication US6294648A, “Protein having proteinase inhibitor activity” (Bayer Corporation, priority 1999, dated 2001).
Read-outs that look alike come from different tables or passages of the source.

Key:
[1] = tested on: leukocyte elastase-induced emphysema; conditions: hamsters
cathepsin G = molecular target: T1, cathepsin G (Homo sapiens, UniProt P08311)
T1 sequence (P08311 21-255): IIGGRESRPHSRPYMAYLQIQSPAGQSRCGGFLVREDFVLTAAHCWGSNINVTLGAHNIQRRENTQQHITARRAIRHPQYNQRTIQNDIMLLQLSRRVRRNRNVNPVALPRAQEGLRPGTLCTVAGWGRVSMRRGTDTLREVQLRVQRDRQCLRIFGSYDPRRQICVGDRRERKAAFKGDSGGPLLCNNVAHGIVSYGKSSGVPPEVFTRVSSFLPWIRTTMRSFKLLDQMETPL

leukocyte elastase = molecular target: T2, leukocyte elastase (Homo sapiens, UniProt P08246)
T2 sequence (P08246 30-267): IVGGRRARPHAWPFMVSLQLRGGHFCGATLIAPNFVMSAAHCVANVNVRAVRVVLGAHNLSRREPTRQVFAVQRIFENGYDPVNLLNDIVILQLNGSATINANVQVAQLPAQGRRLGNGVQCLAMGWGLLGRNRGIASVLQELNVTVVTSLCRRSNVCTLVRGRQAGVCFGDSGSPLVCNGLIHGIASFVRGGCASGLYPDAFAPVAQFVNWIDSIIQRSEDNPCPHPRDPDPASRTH

proteinase 3 = molecular target: T3, proteinase 3 (Homo sapiens, UniProt P24158)
T3 sequence (P24158 28-256): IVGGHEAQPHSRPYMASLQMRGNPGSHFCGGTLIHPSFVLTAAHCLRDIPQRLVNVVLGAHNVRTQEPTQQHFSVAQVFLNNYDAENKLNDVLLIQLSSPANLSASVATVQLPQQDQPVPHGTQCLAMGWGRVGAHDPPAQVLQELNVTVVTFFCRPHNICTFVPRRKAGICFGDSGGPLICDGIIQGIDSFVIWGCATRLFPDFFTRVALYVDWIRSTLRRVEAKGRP

trypsin = molecular target: T4, trypsin (Bos taurus, UniProt P00760)
T4 construct: gene PRSS1
T4 sequence (P00760 24-246): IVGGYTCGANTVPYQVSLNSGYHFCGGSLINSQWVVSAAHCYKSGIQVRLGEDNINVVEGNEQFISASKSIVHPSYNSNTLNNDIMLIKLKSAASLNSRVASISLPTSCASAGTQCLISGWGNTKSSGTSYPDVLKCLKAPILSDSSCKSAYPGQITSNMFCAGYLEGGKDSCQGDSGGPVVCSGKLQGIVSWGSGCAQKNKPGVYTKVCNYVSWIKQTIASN

[2] = tested on: neutrophil-induced ECM solubilization
plasmin = plasmin (Homo sapiens, UniProt P00747)
Chain of plasmin (P00747 581-810 limits assumed, species assumed): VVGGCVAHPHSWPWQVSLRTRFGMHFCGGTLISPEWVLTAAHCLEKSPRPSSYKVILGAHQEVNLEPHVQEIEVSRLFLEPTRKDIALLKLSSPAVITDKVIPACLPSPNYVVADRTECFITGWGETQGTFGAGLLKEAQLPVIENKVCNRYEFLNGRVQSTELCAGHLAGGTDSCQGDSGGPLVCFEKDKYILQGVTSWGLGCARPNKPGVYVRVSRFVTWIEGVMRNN
Chain of plasmin (P00747 97-580 partner limits assumed, species assumed): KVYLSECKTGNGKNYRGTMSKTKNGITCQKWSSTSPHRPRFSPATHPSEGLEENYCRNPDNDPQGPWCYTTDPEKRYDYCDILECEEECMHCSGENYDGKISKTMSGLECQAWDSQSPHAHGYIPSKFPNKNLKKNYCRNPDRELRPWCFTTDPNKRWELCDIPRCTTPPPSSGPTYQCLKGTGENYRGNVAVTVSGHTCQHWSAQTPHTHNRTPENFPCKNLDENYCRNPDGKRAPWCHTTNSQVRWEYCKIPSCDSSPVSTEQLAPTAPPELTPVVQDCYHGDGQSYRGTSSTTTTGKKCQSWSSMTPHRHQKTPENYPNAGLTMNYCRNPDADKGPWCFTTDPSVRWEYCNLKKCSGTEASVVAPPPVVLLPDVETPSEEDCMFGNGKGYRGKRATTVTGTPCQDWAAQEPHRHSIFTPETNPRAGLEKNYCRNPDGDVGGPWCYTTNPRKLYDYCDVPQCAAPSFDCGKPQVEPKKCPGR

B1: Eglin C: member of the potato inhibitor 1 family from leech Hirudo medicinalis (protein, UniProt P01051 1-70, looked up)
Eglin C: TEFGSELKSFPEVVGKTVDQAREYFTLHYPQYDVYFLPEGSPVTLDLRYNRVRVFYNPGTNVVNHVPHVG
Question: For B1, which “protection against leukocyte elastase-induced emphysema / pulmonary hemorrhage” value [1] is on record?
Answer: Its value is “completely protected”.

Question: What about the Ki (cathepsin G) of the same molecule?
Answer: The Ki was ~0.1 nM.

Question: What about the Ki (leukocyte elastase; read-out: Ki, leukocyte elastase) of the same molecule?
Answer: Its Ki is 0.37 nM.

Question: And the “inhibition of proteinase 3, in words” value (proteinase 3)?
Answer: Its value is “only weakly inhibits”.

B2: STI: Kunitz family inhibitor of trypsin from soybean (protein, UniProt P01070 25-205, looked up)
Trypsin inhibitor A: DFVLDNEGNPLENGGTYYILSDITAFGGIRAAPTGNERCPLTVVQSRNELDKGIGTIISSPYRIRFIAEGHPLSLKFDSFAVIMLCVGIPTEWSVVEDLPEGPAVKIGENKDAMDGWFRLERVSDDEFNNYKLVFCPQQAEDDKCGDIGISIDHDDGTRRLVVSKNKPLVVQFQKLDKESL
Question: With B2 as the molecule, how does the “inhibition of trypsin, in words” value (trypsin) read?
Answer: The value was “potent”.

Question: What about the “inhibition of neutrophil-induced ECM solubilization” value [2] of the same molecule?
Answer: The value was “completely or nearly completely inhibit”.

Question: And the “inhibition of chymotrypsin, in words” value (chymotrypsin)?
Answer: Its value is “significantly weaker inhibitor”.

Question: And the Ki (chymotrypsin; read-out: Ki(1), chymotrypsin)?
Answer: Its Ki is 1000 nM.

Question: And the Ki (chymotrypsin; read-out: Ki(2), chymotrypsin)?
Answer: The Ki was 300 nM.

Question: And the ET-1 degradation (activated neutrophils)?
Answer: Its ET-1 degradation is “abolishes ET-1 degradation almost completely”.

B3: placental bikunin: Kunitz family inhibitor; potent inhibitor of plasmin (protein, UniProt O43291 28-252, looked up)
Kunitz-type protease …: ADRERSIHDFCLVSKVVGRCRASMPRWWYNVTDGSCQLFVYGGCDGNSNNYLTKEECLKKCATVTENATGDLATSRNAADSSVPSAPRRQDSEDHSSDMFNYEEYCTANAVTGPCRASFPRWYFDVERNSCNNFIYGGCRGNKNSYRSEEACMLRCFRQQENPPLPLGSKVVVLAGLFVMVLILFLGASMVYLIRVARRNQERALRTVWSSGDDKEQLVKNTYVL
Question: For B3, which Ki (trypsin) is on record?
Answer: Its Ki is 0.01 nM.

Question: And the “inhibition of plasmin, in words” value (plasmin)?
Answer: Its value is “potent inhibitor”.

Question: What about the “inhibition of leukocyte elastase, in words” value (leukocyte elastase) of the same molecule?
Answer: The value was “not leukocyte elastase”.

Question: What about the Ki (chymotrypsin; read-out: Ki, chymotrypsin) of the same molecule?
Answer: The Ki was 0.48 nM.

B4: Alpha-1-antichymotrypsin: serpin family proteinase inhibitor (protein, UniProt P01011 24-423, looked up)
Alpha-1-antichymotrypsin: HPNSPLDEENLTQENQDRGTHVDLGLASANVDFAFSLYKQLVLKAPDKNVIFSPLSISTALAFLSLGAHNTTLTEILKGLKFNLTETSEAEIHQSFQHLLRTLNQSSDELQLSMGNAMFVKEQLSLLDRFTEDAKRLYGSEAFATDFQDSAAAKKLINDYVKNGTRGKITDLIKDLDSQTMMVLVNYIFFKAKWEMPFDPQDTHQSRFYLSKKKWVMVPMMSLHHLTIPYFRDEELSCTVVELKYTGNASALFILPDQDKMEEVEAMLLPETLKRWRDSLEFREIGELYLPKFSISRDYNLNDILLQLGIEEAFTSKADLSGITGARNLAVSQVVHKAVLDVFEEGTEASAATAVKITLLSALVETRTIVRFNRPFLMIIVPTDTQNIFFMSKVTNPKQA
Question: With B4 as the molecule, how does the “inhibition of cathepsin G, in words” value (cathepsin G) read?
Answer: The value was “inhibits”.

Question: And the “inhibition of proteinase 3, in words” value (proteinase 3)?
Answer: Its value is “not proteinase 3”.

B5: Monocyte/neutrophil elastase inhibitor: a serpin family inhibitor (protein, UniProt P30740 1-379, looked up)
Leukocyte elastase inhibitor: MEQLSSANTRFALDLFLALSENNPAGNIFISPFSISSAMAMVFLGTRGNTAAQLSKTFHFNTVEEVHSRFQSLNADINKRGASYILKLANRLYGEKTYNFLPEFLVSTQKTYGADLASVDFQHASEDARKTINQWVKGQTEGKIPELLASGMVDNMTKLVLVNAIYFKGNWKDKFMKEATTNAPFRLNKKDRKTVKMMYQKKKFAYGYIEDLKCRVLELPYQGEELSMVILLPDDIEDESTGLKKIEEQLTLEKLHEWTKPENLDFIEVNVSLPRFKLEESYTLNSDLARLGVQDLFNSSKADLSGMSGARDIFISKIVHKSFVEVNEEGTEAAAATAGIATFCMLMPEENFTADHPFLFFIRHNSSGSILFLGRFSSP
Question: With B5 as the molecule, how does the “inhibition of leukocyte elastase, in words” value (leukocyte elastase) read?
Answer: The value was “inhibits”.

Question: What about the “inhibition of proteinase 3, in words” value (proteinase 3) of the same molecule?
Answer: Its value is “inhibits”.

B6: Antileukoproteinase (SLPI): member of the mucous proteinase inhibitor family (protein, UniProt P03973 26-132, looked up)
Antileukoproteinase: SGKSFKAGVCPPKKSAQCLRYKKPECQSDWQCPGKKRCCPDTCGIKCLDPVDTPNPTRRKPGKCPVTYGQCLMLNPPNFCEMDGQCKRDLKCCMGMCGKSCVSPVKA
Question: Which results are given for B6?
Answer: inhibition of cathepsin G, in words (cathepsin G): not; Ki (leukocyte elastase; read-out: Ki, elastase): 0.6 nM; inhibition of proteinase 3, in words (proteinase 3): not proteinase 3
